Molecular target: preformed E3mUU–UFC1–UFM1 complex (UniProt O94874)
Assay: ITC; MicroCal PEAQ-ITC, 25 °C, 25 mM HEPES pH 7.5, 200 mM NaCl, 0.44 mM TCEP; 13 injections (19 for UFBP1 UFIM–UFM1)

- Kd: 500 nM
Substance: CDK5RAP3 (from UniProt Q96JB5 1-506) (natural protein)

From publication PMC10937380
